Results from US20220332795A1.
Changes are numbered by the printed parent chain. Each block holds one binder with its values, some of them ahead of it.

Target: human serum albumin (human) (UniProt P02768)
Experiment: primary solution ELISA screen

Chain of human serum albumin (human) (P02768 25-609 limits assumed): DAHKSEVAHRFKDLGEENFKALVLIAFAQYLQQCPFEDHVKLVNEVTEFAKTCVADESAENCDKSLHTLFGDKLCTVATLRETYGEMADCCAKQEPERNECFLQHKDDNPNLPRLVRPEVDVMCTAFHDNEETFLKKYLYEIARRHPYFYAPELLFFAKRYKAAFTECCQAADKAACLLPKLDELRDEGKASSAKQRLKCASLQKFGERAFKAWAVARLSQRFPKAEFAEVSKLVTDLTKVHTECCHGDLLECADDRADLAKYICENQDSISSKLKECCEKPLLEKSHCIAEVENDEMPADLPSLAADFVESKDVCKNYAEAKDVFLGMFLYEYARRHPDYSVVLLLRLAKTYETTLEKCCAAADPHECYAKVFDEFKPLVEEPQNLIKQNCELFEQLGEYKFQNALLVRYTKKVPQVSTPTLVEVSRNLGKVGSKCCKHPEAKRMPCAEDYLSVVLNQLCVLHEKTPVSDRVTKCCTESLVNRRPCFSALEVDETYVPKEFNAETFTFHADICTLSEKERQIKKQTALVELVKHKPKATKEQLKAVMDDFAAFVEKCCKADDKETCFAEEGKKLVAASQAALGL

B1: SEQ ID NO 39 (designed binder, not shown: small tags and cut ends)
chain: MLPAPKNLVVSRVTEDSARLSWTAPDAAFDSFPIPYTEPPDPGEAIVLTVPGSERSYDLTGLKPGTEYLVTILGVKGGSMSVPLSAIFTT
RLU: 51100 RLU

B2: SEQ ID NO 6 (designed binder, not shown: small tags and cut ends)
chain: MLPAPKNLVVSRVTEDSARLSWTAPDAAFDSFPIIYMETFSRGEAIVLTVPGSERSYDLTGLKPGTEYRVPIGGVKGGSSSCPLSAIFTT
RLU: 7300 RLU

B3: SEQ ID NO 56 (designed binder, not shown: small tags and cut ends)
chain: MLPAPKNLVVSRVTEDSARLSWTAPDAAFDSFSIGYVELVLLGEAIVLTVPGSERSYDLTGLKPGTEYDVLIPGVKGGSLSRPLSAIFTT
RLU: 19400 RLU

B5: SEQ ID NO 61 (designed binder, not shown: small tags and cut ends)
chain: MLPAPKNLVVSRVTEDSARLSWTAPDAAFDSFQIVYSELWIKGEAIVLTVPGSERSYDLTGLKPGTEYQVPIPGVKGGRNSFPLSAIFTT
RLU: 13600 RLU

B6: SEQ ID NO 1 (designed binder, not shown: small tags and cut ends)
chain: MLPAPKNLVVSRVTEDSARLSWTAPDAAFDSFPITYIEAVVLGEAIVLTVPGSERSYDLTGLKPGTEYPVGISGVKGGHNSMPLSAIFTT
RLU: 15800 RLU

B7: SEQ ID NO 63 (designed binder, not shown: small tags and cut ends)
chain: MLPAPKNLVVSRVTEDSARLSWTAPDAAFDSFCISYYERMGRGEAIVLTVPGSERSYDLTGLKPGTEYMVYIFGVKGGLNSLPLSAIFTT
RLU: 5700 RLU

B9: SEQ ID NO 42 (designed binder, not shown: small tags and cut ends)
chain: MLPAPKNLVVSRVTEDSARLSWTAPDAAFDSFLIPYAETSPSGEAIVLTVPGSERSYDLTGLKPGTEYSVLIHGVKGGDYSEPLSAIFTT
RLU: 1000 RLU

B10: SEQ ID NO 44 (designed binder, not shown: small tags and cut ends)
chain: B9 chain with L33F, T39P, S42T, D79H, Y80L, E82D, F88V
RLU: 56600 RLU

B12: SEQ ID NO 57 (designed binder, not shown: small tags and cut ends)
chain: B9 chain with L33A, T39L, P41R, S42N, S69T, D79C, Y80L, E82D
RLU: 38800 RLU

B14: SEQ ID NO 46 (designed binder, not shown: small tags and cut ends)
chain: B9 chain with L33I, T39V, S40R, S42D, D79K, Y80L, E82L
RLU: 8150 RLU

B15: SEQ ID NO 65 (designed binder, not shown: small tags and cut ends)
chain: B9 chain with E15K, L33P, P35A, T39P, S40R, S42D, D79L, Y80L, E82S
RLU: 16000 RLU

B16: SEQ ID NO 40 (designed binder, not shown: small tags and cut ends)
chain: MLPAPKNLVVSRVTEDSARLSWTAPDAAFDSFTIDYWENRCPGEAIVLTVPGSERSYDLTGLKPGTEYCVWISGVKGGYSSWPLSAIFTT
RLU: 13600 RLU

B19: SEQ ID NO 43 (designed binder, not shown: small tags and cut ends)
chain: MLPAPKNLVVSRVTEDSARLSWTAPDAAFDSFMIVYYEYTRFGEAIVLTVPGSERSYDLTGLKPGTEYTVPIDGVKGGGRSSPLSAIFTT
RLU: 21500 RLU

B23: SEQ ID NO 53 (designed binder, not shown: small tags and cut ends)
chain: MLPAPENLVVSEVTEDSARLSWQGVARAFDSFLITYREQIFAGEVIVLTVPGSERSYDLTGLKPGTEYPVWIQGVKGGSPSAPLSAESTT
RLU: 32000 RLU

B24: SEQ ID NO 70 (designed binder, not shown: small tags and cut ends)
chain: B23 chain with E6K, E12R, S79D, P80L, A82N, E87I, S88F
RLU: 94800 RLU

B26: SEQ ID NO 7 (designed binder, not shown: small tags and cut ends)
chain: B23 chain with E6K, E12D, S88F
RLU: 26100 RLU

B28: SEQ ID NO 59 (designed binder, not shown: small tags and cut ends)
chain: MLPAPKNLVVSRVTEDSARLSWTAPDAAFDSFVYNEVHWIGEAIVLTVPGSERSYDLTGLKPGTEYFVGIYGVKGGHWSKPLSAIFTT
RLU: 16400 RLU

B29: SEQ ID NO 48 (designed binder, not shown: small tags and cut ends)
chain: MLPAPKNLVVSRVTEDSARLSWTAPDAAFDSFLIYYEEGYLEYYYSGEAIVLTVPGSERSYDLTGLKPGTEYYVGIVGVKGGGLSGPLSAISTT
RLU: 115000 RLU

B30: SEQ ID NO 50 (designed binder, not shown: small tags and cut ends)
chain: MSLPAPKNLVVSRVTEDSARLSWTAPDAAFDSFTIHYREFQLSGEAIVLTVPGSERSYDLTGLKPGTEYDVPIEGVKGGPGSRPLSAIFTT
RLU: 16000 RLU

B31: SEQ ID NO 54 (designed binder, not shown: small tags and cut ends)
chain: MLPAPKNLVVSRVTEDSARLSWTAPDAAFDSFAIAYGEHIVIGEAIVLTVPGSERSYDLTGLKPGTEYMVPIAGVKGGPISLPLSAIFTT
RLU: 11700 RLU

Continued, values first:

RLU: 28600 RLU
B4: SEQ ID NO 37 (designed binder, not shown: small tags and cut ends)
chain: MLPAPKNLVVSRVTEDSARLSWTTPDAAFDSFPIYYWEVTITGEAIYLSVPGSERSYDLTGLKPGTEYPVDIPGVKGGAASPPLSAIFTT

RLU: 8150 RLU
B8: SEQ ID NO 38 (designed binder, not shown: small tags and cut ends)
chain: MLPAPKNLVVSRVTEDSARLSWTAPDAAFDSFPILYLEHTVRSEAIVLTVPGSERSYDLTDLKPGTEYCVPIDGVKGGLRSRPLSAIFTT

RLU: 6000 RLU
B11: SEQ ID NO 64 (designed binder, not shown: small tags and cut ends)
chain: B9 chain with L33Y, P35V, T39P, S40I, S42N, D79R, Y80N, E82D

RLU: 38400 RLU
B13: SEQ ID NO 68 (designed binder, not shown: small tags and cut ends)
chain: B9 chain with L33I, T39V, S40R, S42D, D79H, Y80L, E82D, F88S

RLU: 8100 RLU
B17: SEQ ID NO 62 (designed binder, not shown: small tags and cut ends)
chain: B2 chain with P33K, I35R, M37T, F40R, R42I, R69C, S79D, C82W, F88S

RLU: 8100 RLU
B18: SEQ ID NO 66 (designed binder, not shown: small tags and cut ends)
chain: B16 chain with W37D, N39P, C41S, C69R, W71F, S73W, V75I, Y79D, S80T, W82F

RLU: 20400 RLU
B20: SEQ ID NO 47 (designed binder, not shown: small tags and cut ends)
chain: B19 chain with M33G, Y37L, Y39M, T40M, R41V, F42T, T69D, D73L, G79T, S82V

RLU: 174000 RLU
B21: SEQ ID NO 4 (designed binder, not shown: small tags and cut ends)
chain: B23 chain with E6K, E38D

RLU: 115000 RLU
B22: SEQ ID NO 41 (designed binder, not shown: small tags and cut ends)
chain: B23 chain with E6K, E12R, S79H, P80L, A82D, E87I, S88V

RLU: 45000 RLU
B25: SEQ ID NO 5 (designed binder, not shown: small tags and cut ends)
chain: B23 chain with E6K, P69W, W71Y, Q73W, S79K, A82F, S85R, E87G, S88F

RLU: 14200 RLU
B27: SEQ ID NO 67 (designed binder, not shown: small tags and cut ends)
chain: MLPAPKNLVVSRVTEDSARLSWTAPDAAFDSFTILYAEQAQFGEAIVLTVPGSERSYDLTGLKPGTEYPITGVKGGTRSGPLSAISTT
